In US20040063641A1, “Use of growth hormone or a growth hormone secretagogue for promoting bone formation” (priority 1996, published 2004):

B1: GH: recombinant porcine growth hormone (r-pGH), homologous GH given by daily injection to mini-pigs (protein, UniProt P01248 27-216, looked up)
Somatotropin: FPAMPLSSLFANAVLRAQHLHQLAADTYKEFERAYIPEGQRYSIQNAQAAFCFSETIPAPTGKDEAQQRSDVELLRFSLLLIQSWLGPVQFLSRVFTNSLVFGTSDRVYEKLKDLEEGIQALMRELEDGSPRAGQILKQTYDKFDTNLRSDDALLKNYGLLSCFKKDLHKAETYLRVMKCRRFVESSCAF
B2: cST: canine somatotropin, given to dogs in the cited study of Buonomo et al. (protein, UniProt P33711 27-216, looked up)
Somatotropin: FPAMPLSSLFANAVLRAQHLHQLAADTYKEFERAYIPEGQRYSIQNAQAAFCFSETIPAPTGKDEAQQRSDVELLRFSLLLIQSWLGPVQFLSRVFTNSLVFGTSDRVYEKLKDLEEGIQALMRELEDGSPRAGQILKQTYDKFDTNLRSDDALLKNYGLLSCFKKDLHKAETYLRVMKCRRFVESSCAF

Key:
[1] = system: distracted tibia (bone regenerate); test: Mechanical torsion testing of distracted tibia after callus distraction in mini-pigs; format: in vivo, Yucatan mini-pigs; settings: r-pGH 100 μg/kg daily injection
Experimental: After sacrifice, the right and left limb were dissected. The soft tissue around the joints was removed, and the ends of the tibia were casted in Beracryl. The constructs were placed in a materials testing machine (Zwick, Ulm, Germany), and torsional moments were applied. Resulting displacements and torsional moments were recorded. The test was conducted with a speed of 30° per minute until failure. The system automatically terminated the test at a torque of […]. The final bone torsional strength of a mini-pig group treated with growth hormone was investigated relative to a control group. 30 mature female Yucatan mini-pigs were equally distributed into two treatment groups. Mini-pigs in the study group received a daily injection of recombinant porcine growth hormone (r-pGH: 100 μg/kg), the mini-pigs in the control group received sodium chloride as placebo. The left tibiae and fibulae were osteotomized and stabilized with an external fixator. Full weight bearing was permitted. The legs were distracted twice daily at 2 mm/day for 10 days and then allowed to consolidate for 10 days. After sacrifice, torsional moments were applied to the distracted and the contralateral tibia in a material testing machine and the maximum torsional moment was determined. Four animals were removed from the study due to bone infection or surgery failure and data of 2 animals were lost due to test machine failure. A t-test was used to determine differences in maximum torsional moments between the treatment groups.

healing fracture = settings: dogs treated with cST; no distraction; cited from earlier work

| Molecule | maximum torsional moment in comparison to the intact contralateral tibia ([1]; at sacrifice, p<0.001 vs control) [%] | maximum torsional moment ([1]; distracted tibia at sacrifice, mean±SD, p=0.001 vs placebo) [Nm] | maximum torsional moment, higher than that of the placebo group ([1]; distraction 2 mm/day for 10 days, consolidation 10 days, at sacrifice, p=0.001) [%] | increase of stiffness of the healing fracture as compared to non-treated dogs (healing fracture) [fold] | increase of strength of the healing fracture as compared to non-treated dogs (healing fracture) [fold] |
| --- | --- | --- | --- | --- | --- |
| B1 | 64±22.4 | 19.5±7.8 | 131 | – | – |
| B2 | – | – | – | 5 | 3 |
